Paper PMC10646984 (Biomacromolecules, 2023)

T1: Gal-8 (Homo sapiens, UniProt O00214)
T1 construct: made in house; host or cells: Escherichia coli Rosetta 2(DE3)pLysS
T1 sequence (O00214 1-317): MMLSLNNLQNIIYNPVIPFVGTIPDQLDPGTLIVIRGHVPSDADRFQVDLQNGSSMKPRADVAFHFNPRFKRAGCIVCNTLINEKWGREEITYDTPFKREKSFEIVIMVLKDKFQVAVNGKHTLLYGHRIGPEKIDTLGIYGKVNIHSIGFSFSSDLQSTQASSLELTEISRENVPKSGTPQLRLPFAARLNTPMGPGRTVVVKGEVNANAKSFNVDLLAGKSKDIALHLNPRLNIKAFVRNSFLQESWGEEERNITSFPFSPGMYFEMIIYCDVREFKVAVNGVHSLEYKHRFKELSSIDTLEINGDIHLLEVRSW

T2: asialofetuin (ASF; a glycoprotein terminated with LacNAc moieties) (UniProt P12763 19-359, glycoprotein terminated with LacNAc moieties (desialylated glycans))
T2 construct: asialofetuin, the desialylated form of fetuin
T2 sequence (looked up): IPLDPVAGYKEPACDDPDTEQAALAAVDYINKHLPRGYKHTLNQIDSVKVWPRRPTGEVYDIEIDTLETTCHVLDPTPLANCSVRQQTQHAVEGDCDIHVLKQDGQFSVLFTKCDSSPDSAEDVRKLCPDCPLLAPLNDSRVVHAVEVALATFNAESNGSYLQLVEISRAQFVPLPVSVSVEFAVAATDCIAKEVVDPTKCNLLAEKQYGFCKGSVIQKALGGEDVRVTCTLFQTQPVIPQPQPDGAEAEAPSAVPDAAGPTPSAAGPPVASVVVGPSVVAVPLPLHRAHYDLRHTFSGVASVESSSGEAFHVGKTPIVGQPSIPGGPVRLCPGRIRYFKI


Assays:
Gal-8 [1] = target: T1, Gal-8; assay: competitive ELISA with immobilized asialofetuin (ASF), Gal-8; type: binding; details: 1 μM Gal-8, immobilized ASF, DMSO co-solvent
Procedure: (§1) The inhibitory potential of prepared Lac-CS-DDMs toward Gal-1, Gal-3, Gal-8, and Gal-9 was determined using a competitive ELISA assay with immobilized asialofetuin (ASF; a glycoprotein terminated with LacNAc moieties).[41] ASF (0.1 μM in PBS, 50 μL/well) was coated in microtiter plates (Nunc Immuno Sorb, Thermo Fisher Scientific, USA) and incubated overnight. Then, the wells were washed with 3 × 250 μL of PBS buffer containing 0.05% Tween; this washing step followed each incubation step. The wells were then blocked with 2 mg/mL BSA in PBS buffer (250 μL/well) and incubated for 1 h. […] The reaction was stopped by adding 3 M HCl (50 μL per well), accompanied by a color shift to yellow as determined spectrophotometrically by an absorbance microplate reader (Sunrise Tecan Group Ltd., CH). […] A background value, as a mean of the negative control wells containing buffer instead of galectin/ligand, with an absorbance of ca. 0.05–0.075 was subtracted from the measured absorbances. The values of half maximal inhibitory constants (IC50) were calculated from the non-linear regression (dose–response inhibition-variable slope) of the sigmoidal curves using GraphPad Prism 7 (GraphPad Software, USA) from at least three independent experiments with at least two different galectin batches. […]

Gal-9 [2] = target: T3, Gal-9 (Homo sapiens, UniProt O00182, A222P/DEL149-219); assay: competitive ELISA with immobilized asialofetuin (ASF), Gal-9; type: binding; details: 1 μM Gal-9, immobilized ASF, DMSO co-solvent
T3 construct: made in house; host or cells: Escherichia coli Rosetta 2(DE3)pLysS
T3 sequence (O00182 with tags, fused parts or gaps DEL149-219/A222P): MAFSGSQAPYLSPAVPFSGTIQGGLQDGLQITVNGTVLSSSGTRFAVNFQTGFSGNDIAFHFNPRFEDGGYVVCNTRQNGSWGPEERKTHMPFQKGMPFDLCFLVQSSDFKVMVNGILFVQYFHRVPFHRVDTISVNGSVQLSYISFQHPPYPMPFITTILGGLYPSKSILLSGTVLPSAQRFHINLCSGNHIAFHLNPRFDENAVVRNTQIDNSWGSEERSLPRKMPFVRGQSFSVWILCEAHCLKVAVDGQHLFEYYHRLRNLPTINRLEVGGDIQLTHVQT
Procedure: as §1

Gal-1 = target: T4, Gal-1 (Homo sapiens, UniProt P09382, C3S); assay: direct binding ELISA of galectin to immobilized ASF, Gal-1
T4 construct: made in house; host or cells: Escherichia coli Rosetta 2(DE3)pLysS
T4 sequence (P09382 whole entry C3S): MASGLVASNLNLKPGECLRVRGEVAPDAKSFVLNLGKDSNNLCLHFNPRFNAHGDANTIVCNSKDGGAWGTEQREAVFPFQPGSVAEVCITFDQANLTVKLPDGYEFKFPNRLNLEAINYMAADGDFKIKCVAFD

Gal-9 [3] = target: T3, Gal-9; assay: direct binding ELISA of galectin to immobilized ASF, Gal-9
Gal-3 = target: T5, Gal-3 (Homo sapiens, UniProt P17931); assay: direct binding ELISA of galectin to immobilized ASF, Gal-3
T5 construct: made in house; host or cells: Escherichia coli Rosetta 2(DE3)pLysS
T5 sequence (P17931 whole entry): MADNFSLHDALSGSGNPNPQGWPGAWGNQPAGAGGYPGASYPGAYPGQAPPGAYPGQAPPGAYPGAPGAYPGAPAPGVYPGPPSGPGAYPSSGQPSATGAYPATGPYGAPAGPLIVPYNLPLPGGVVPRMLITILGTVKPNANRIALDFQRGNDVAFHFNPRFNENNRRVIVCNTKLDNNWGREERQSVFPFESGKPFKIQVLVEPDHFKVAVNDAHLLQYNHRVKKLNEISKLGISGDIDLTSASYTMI

Gal-8 [4] = target: T1, Gal-8; assay: direct binding ELISA of galectin to immobilized ASF, Gal-8
[5] = DLS hydrodynamic diameter of single components (galectins, Lac-CS-DDMs); type: physicochemical; details: single component 10 μM in PBS, 25 °C
Procedure: The hydrodynamic diameter of the nanoparticles of galectins, Lac-CS-DDMs, and their aggregates was measured by dynamic light scattering (DLS) using a Zetasizer Nano ZS (Malvern Instruments Ltd., UK) at 25 °C in Malvern disposable plastic microcuvettes (100 μL sample volume). The light scattered at 173° from the incident light was fitted to an autocorrelation function using the method of cumulants (Malvern Instruments Ltd., UK). Commercial sterile PBS was used for sample preparation. […] Mixtures of components were incubated for 90 min at room temperature. The samples were vortexed prior to measurements. The hydrodynamic diameters were determined from five independent repetitions (each 10–50 runs). Multimodal intensity-weighted particle size distribution was used for data analysis.
DLS experiments on the A series of Lac-CS-DDMs and G3-B-AcLac32 were performed to provide insight into the complexity of multivalent galectin/Lac-CS-DDM interactions (Table 2). Unlike ELISA assays that simulate competitive binding on the cell surface, DLS is a straightforward method to evaluate non-surface bound multivalent assemblies.[71] Thus, it is interesting to relate the data obtained by these two methods. Since the transformation of intensity-weighted size distribution to volume-weighted size distribution requires information on the refractive index and absorption of the formed particles and assumes their homogeneity and spherical shape,[72] all presented data come from the analysis of the multimodal intensity-weighted size distribution. As the scattering intensity correlates with the particle diameter to the sixth power, whereas the mass only to the third power, the abundance of larger particles is overestimated at the expense of the smaller ones with respect to the real sample composition, especially in the case of polydisperse samples with multiple size populations.[73] This means that, due to the presence of large aggregates, the particles smaller by orders of magnitude present in the sample may not be detected. Despite the above bottlenecks, we believe that using the size-to-intensity plot is the most appropriate as it is highly sensitive to a starting aggregation, which may be undetectable in the size-to-volume distribution, and it is well suited to compare results between different galectins and Lac-CS-DDM generations to address general differences and trends in their aggregation behavior.

[6] = target: asialofetuin (ASF; a glycoprotein terminated with LacNAc moieties) (UniProt P12763); assay: ELISA; direct binding: ASF (0.1 μM in PBS) coated on the plate, serial dilution of the galectin in EPBS (2 mM EDTA in PBS), bound galectin detected with anti-His antibody-HRP
[7] = target: T2, asialofetuin (ASF; a glycoprotein …); assay: as above; details: both partners purified

| Molecule | PI (polydispersity index) [5] | hydrodynamic diameter, aggregates >0.5 μm [5] | hydrodynamic diameter, small particles <50 nm (first fraction) [5] | intensity-weighted abundance, aggregates >0.5 μm [5] | intensity-weighted abundance, small particles <50 nm (first fraction) [5] | other results |
| --- | --- | --- | --- | --- | --- | --- |
| OC[C@H]1O[C@@H](O[C@H]2[C@H](O)[C@@H](O)C(O)O[C@@H]2CO)[C@H](O)[C@@H](O)[C@H]1O (mixture of isomers) [lactose] |  |  |  |  |  | IC50 (Gal-8 [1]): 1680 ± 420 µM; IC50 (Gal-9 [2]): 1350 ± 440 µM |
| ASF: asialofetuin, a glycoprotein terminated with LacNAc moieties, immobilized competitor in ELISA |  |  |  |  |  | Kd (Gal-1): 4.4 µM; Kd (Gal-9 [3]): 0.3 µM; Kd (Gal-3): 3.2 µM; Kd (Gal-8 [4]): 0.37 µM |
| Gal-1: recombinant human galectin-1, N-terminal His-tagged, C2S mutation | 0.4 | 1.2 ± 0.5 μm | 1.3 ± 0.1 nm | 32% | 47% | hydrodynamic diameter, small particles <50 nm (second fraction) [5]: 19.0 ± 6.0 nm; intensity-weighted abundance, small particles <50 nm (second fraction) [5]: 21% |
| Gal-3: recombinant human galectin-3, N-terminal His-tagged | 0.6 | 1.1 ± 0.1 μm | 7.9 ± 1.4 nm | 13% | 36% | hydrodynamic diameter, aggregates >0.1 μm [5]: 0.4 ± 0.1 μm; intensity-weighted abundance, aggregates >0.1 μm [5]: 40% |
| Gal-8: recombinant human galectin-8, N-terminal His-tagged, full-length peptide linker of 34 aa | 0.7 | 1.4 ± 0.3 μm | 5.4 ± 0.5 nm | 80% | 20% |  |
| Recombinant human galectin-1 (Gal-1) with mutation C2S, N-terminal His-tagged (natural protein) |  |  |  |  |  | Kd [6]: 4.4 µM |
| Recombinant human galectin-9 (Gal-9) with a truncated mutated peptide linker HPPYPMPF, N-terminal His-tagged (natural protein) |  |  |  |  |  | Kd [6]: 0.3 µM |
| Recombinant human galectin-8 (Gal-8) with a full-length peptide linker of 34 aa, N-terminal His-tagged (natural protein, UniProt O00214 1-317, looked up, galectin-8 (tandem repeat), human; contains a full-length peptide linker of 34 aa (3717 Da); ca. 36 kDa; cloned in pET-Duet1 (AscI/NotI); plasmid a gift from Prof; L. Elling; source: E. coli Rosetta 2(DE3)pLysS, purified (Ni-NTA); not shown: His tag, N-terminal, kept) MMLSLNNLQNIIYNPVIPFVGTIPDQLDPGTLIVIRGHVPSDADRFQVDLQNGSSMKPRADVAFHFNPRFKRAGCIVCNTLINEKWGREEITYDTPFKREKSFEIVIMVLKDKFQVAVNGKHTLLYGHRIGPEKIDTLGIYGKVNIHSIGFSFSSDLQSTQASSLELTEISRENVPKSGTPQLRLPFAARLNTPMGPGRTVVVKGEVNANAKSFNVDLLAGKSKDIALHLNPRLNIKAFVRNSFLQESWGEEERNITSFPFSPGMYFEMIIYCDVREFKVAVNGVHSLEYKHRFKELSSIDTLEINGDIHLLEVRSW |  |  |  |  |  | Kd [7]: 0.37 µM |
